This is an account of results in patent US20250084176A1.

This test addresses mouse CD137, full length, on cells (mouse) (UniProt P20334). Briefly: cell-based or functional assay.

Chain of mouse CD137, full length, on cells (mouse) (P20334 24-256): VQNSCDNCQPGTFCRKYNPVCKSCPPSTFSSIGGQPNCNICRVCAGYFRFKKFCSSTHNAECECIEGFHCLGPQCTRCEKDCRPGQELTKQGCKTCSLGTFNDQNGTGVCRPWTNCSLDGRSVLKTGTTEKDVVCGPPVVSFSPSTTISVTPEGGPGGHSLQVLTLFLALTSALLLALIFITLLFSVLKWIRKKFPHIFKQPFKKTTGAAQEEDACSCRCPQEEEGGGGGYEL

G1-AA/Lob12.3 (antibody): the IL-2 release, mouse CD137 DO11.10 T cell activation assay, Protein L: +XL EC50 is 2.26 nM and the IL-2 release, mouse CD137 DO11.10 T cell activation assay, Protein L: +XL Emax was found to be 21300 pg/mL.
